Laboratory results as given in the domain aggregation screens of Martell et al. (2025).

Test: soluble fraction after stress (log2 fold change); higher = more stays soluble; pooled small domains, quantitative proteomics
Conditions: stress: 50 degC
How it was run: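 The stress applied to every library was 50°C. These custom libraries of small protein domains were pooled and measured at high throughput with quantitative proteomics as the read-out. Aggregation propensity is expressed as the base-two logarithm of the fold change in how much of each protein remains soluble. The higher the value, the more of that protein stays in solution.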

| Sequence | soluble fraction (log2) |
| --- | --- |
| HMGAQINSPISGTILKYLVKNGDKITKDQPLVNIESMKMENTIKSDKEGIVNNINFKIGDSVNTADTLLTL | 0.0243 |
| HMSLNNAHNTIFPRIIELMEMKQLENVLLIGGGIIPRKDIESLESSGVTKLYGPGTPVKETIEFITNWVK | -0.268 |
| HMGRRRAAPQEPLRQFPASPVTGQPIKLLLGQYGPYVTDGTTNASLPKGSSPDELTFEQATQLLAERALRG | 0.109 |
| HMGGEEKALLFGDVDIREAGEITQRLEQAEIPYELRGDGSSIFVPRSRVMEARMMISADGLL | -0.0992 |
| HMSMQIILLDKVVNLGGLGDVVKVKDGYARNYLIPQGKAKRANTANLAEFEARRVELERLAAEQLAQAQA | 0.0814 |
| HMQNLISSDEAKNIALQHANLTDNQVTFIKVSKDYDDGIHIYEVEFHYNNREYNYDINAINGTILSYEQ | -0.574 |
| HMISSKDIINDEDGARLGKIADVEIDVATGKILSVHVYRSFKLLHLFGNKDVVQIPWNKIMKIGSDVVIVE | -0.0123 |
| HMNAAFMKAERLLAILNILLTGKRVSSTELAKKLEVSVRTVYRDVEALSEAGFPVYATMGRDGGFGLIEGF | -1.95 |
| HMVEPTDFTYLKAEVETAKALKQADYTVATWKSFAGELAEAEEVIAKTDASQAEVNEALSHLQAAEKELV | 0.175 |
| HMQIIEVPYSEFLKKLESGQISEVSRDSYQIVFTDRSQPPIIYKTGLMEDPGLVDKMQEAGVTFTSP | 0.12 |
| HMDVLSQYGSRGEEVGKIQTRLKSWGYFSGEVTGYYGSQTTEAVKRFQQKHGLSATGVADRKTLELIGIS | -0.108 |
| HMNDPFVILGVSKDASQSEILEAYKQKRAYYQERVFDEGDEGAQAARMLTQLDDAYQQAMELSHES | -0.151 |
| HMGIAFDYDAGRFDQVPPNLVEKWQQAYPAVDVLSELRRMEAWASANPVNRKSNWQRFIVNWLTRAQDRAG | -0.215 |
| HMSDGYETLVNMAKPFLNNSKQITENDITDAVNTVSVMLKKRYDMTDEDIRKAVSELLHFYA | -0.057 |
| HMEYSNLGEALRRLSEIDLQIILLKYSHGFSIKEISKILDIKEVNLYKRNKRALNKLKKILAEMEVLSN | -0.397 |
| HMLNDKLQTLFSLFPAVDKDLKKKGVTRQILWEQYKRNHPDGVGRSQFNYYYAQWKDQVNPT | -1.47 |
| HMQMSERENTILLTKRYIERGEYERAMNLLDSLLIKNALDEEALAMIDEIIALKAGASLQDFPRY | -0.684 |
| HMNQSYQLWIKDDELGPTPRSVGVLNEHFEVDPAALTNYDAELLRRATFGISLEPRGGSPTGQP | -0.0224 |
| HMTPKVTVPDVTGQTFSSAKQILESLGFTVKQQGSTDETDQVIDQNPTSGEADKGATITLTTKSS | 0.297 |
| HMSRELVILGNSMLNNALKAFHVSPASIKKKHWDKLILDYHLESKNNILIDIALGKRINVMVAHQLTSIID | 0.56 |
| HMQDKIWVVDETQLYPKLIEAMSEGKAVIHDGVAYWAEGSGKTGVIQHLPFKETTVQNVEEAIKLAQ | 0.169 |
| HMGTEITEQRAKEIALENAKVAESDVTAMRVKKEMDDGVWRYDVEFYVQNKEYDYEINAMDGTILSVDYD | -0.04 |
| HMEPQLVKSFDVQTELTYDQFLSKYPESHTLGRLLVQPEPIPFEPYKNIPGITPEKLLALHAKHLEAR | 0.0728 |
| HMPQTNIYPNPAFDKLFVSNLENETNFKIMDLFGRTIINSKTKGEISISELKSGIYIIEINNFRQKFVK | -0.839 |
| HMKEQLLLGFKVRSLRGIDLGFVKFIEGSAFQSFLKTDLTIIPNVPNYVKKIDNVKKIILVDWESD | -2.69 |

| Sequence | soluble fraction (log2) |
| --- | --- |
| HMTKYEKKIFEIVNASRDHLTAEQVLAALREEYPAVSQATVYNNLKKLTSDGLLRKLTLADSPDRYD | -0.208 |
| HMKHTQTDEGELLSTLRTLFPNSSSSSLRKMLTQGRILVNQEVVHRAKHALQAGDEIEVLARQ | -0.122 |
| HMNQRTATVTASQLNVRSGPSTAYSIVHVLRQGETVEVIGESDGWYQIRLKDGRVGWSSGQYLNLN | 0.0784 |
| HMKNNAIAPDQVVSLLKNEVNYNDDGRIEILDNNKNIRYNSKGELLTIEERVNEFLDANPHFRK | -0.119 |
| HMASPRVWKDASSGRTLTGEFVELTKDAVKVRRANGDVVSLPLSRLTEEDITFAKGASETGGA | 0.146 |
| HMGHEALSSKLDEIQGVGKEKRSLLLDHFKTFERIKNASMEELEAVPSLGKNTAKAVFRFFHS | 0.07 |
| HMFPELDEEEQKITKLLQAQNDLPANIIAVKTALNIGTTQAKLFSLEMKGVVKPYAGGFYHLL | -0.25 |
| HMSGPAEDLLAIEGMDKELAYELAARGIRTRDELADQSLDELEAVPGLDPVRAGQLIMAARAHLFENAGQ | -0.124 |
| HMGKAVTLEEARAIIQAKVPGASPDMIQIWEEHGDGRGRYEGELSYNNMKYEFEMDPKTGIIFDWNA | -0.224 |
| HMGKIINMSKVKQVLRLHTQGVSNRRIALDLGLYKGTVNSYIRKIKDHGYDIAEVLKLDDPVLESKLFA | -0.227 |
| HMTQFSASSERAGAGGAYRTTLRAMEQNGDLLQISILLPDAVTAKHAATVWPERAQAIYTAILSELLK | -0.446 |
| HMLIGLNETESLVLDALIANPMRIDQVSAMLKKDVATTLKFLGGLSVRGLVETLFGGRFAPTKIALHARS | -0.276 |
| HMLIDQYPYSIIYRLIPHGRSNAVPAAQIVGLTKLDERSIRIYVEAMRREGHIIASSSKGYYFPASIEE | -2.83 |
| HMTNYGTVRPGARGQAVTALQQALIRHGYKLTADGIYGRATRQAVRAFQQKHKLKVDGIVGSKTWALLLAD | -1.04 |
| HMKEQYTELDWDKVQVNDKVMIKDLNQQVTILSLPDKNNALYIQMGMIKTKVKKEKLAVYNPQLA | -0.185 |
| HMNDPIESLTPREREVLTLMAEGRTNAAIAAQLVVTEGAVEKHTQHIFAKLGLLPDSAVHRRVKAVLALLS | -1.75 |
| HMPNPALESARPAFEAFLSRFSDGEAMRGPAWGLWSLLHRKGNAPTASHAAGRDGMGVLAFLRHWQWG | -0.479 |
| HMYVPEVPVPDLLGRSEEEAKNLIEDLGLVFKVSKREYSKEYDEGHVMEQSVDEGAKVKENYPVEVVISR | 0.196 |
| HMSDEIQLQFIQISIFKDHPWADMQIKDMNIIPDLLIVMILRDGERIIPNGNTRIMPGDMVIITAMSANT | -2.89 |
| HMEIVQVIAQNIQDLLDKHKISVSELSGYLGISRQTLTNYLKTTSTIDSVQLVKIADFFNIPAEYLLKDH | -0.968 |
| HMATQTGTVKWFNEGKGFGFIAPDDGSKDLFAHFSEIKTTGFKTLAEAQRVEFEVTEGRKGLQASNIK | 0.0521 |
| HMDINLSENLVRLRHAKKLTQEQLADFLGVTKASVSKWETRQSLPDILLLPRLAAFYGVTVDELIGYEP | -0.253 |
| HMKRTRLEEAMDWLREQLNDGPVAYATLKDEAPKAEITLSTLRAAGEALRVDKQKKGVQWGGWTWSLPR | 0.0438 |
| HMDTDVFLMDLRGESRDYAEEVLINNNLEVKVIILPFSKRHYPGKVVEMRPSPFTKVKKGRIITLSVAGN | -3.71 |
| HMDMQMPIMNGLEFLERINLTLDDNFSIIVLTGKIEDKSIEKSFELGINAYLRKPFNIYALLGIVRQN | -0.0848 |

| Sequence | soluble fraction (log2) |
| --- | --- |
| HMVFRFELQPSSATPLYRQIVEQVTRAVAAGVLRDGEELPSVRAVAQEYVINPMTVSKAYSLLEAQSI | -0.349 |
| HMADIWDLLRSEYKLTETDVRMLTDMLPDELMNDFRSEVLALRDRMNRYKVNNPKSYVVTSLKNFIIQHTP | -0.263 |
| HMELPPLQPGQPIDGRVEQQIRAGYYVVSVRGRGYEFQLPESARPGDLLRMVYLNDHPRLTFALLRIDNAN | -0.98 |
| HMKPTVKKLLAALPELRSGQPLHLSVATRKLRDAGLLGKNASSPTLFRNYVAQFELIPENQPNAVRYR | -0.551 |
| HMRGVDRPLTLPRHWRRNAGRLVKVTLANGSAVTGRVLDPGEERVTLEVSGERHEVAYADVKKALVQVEF | -0.169 |
| HMNREEFLSQLERLLYDIPAQEREEALEYYNGYFDDAGKEKEAEVIQELGSPGKVAAIIKADLSG | -0.0285 |
| HMLAAAVVVYATDKVNVRAEASETADVIGQLEAGSQTTRLEDKDGWSRIDYSNGTQGYMKSEFLSTEAPT | -0.102 |
| HMQAQQYYMLLMNKATSALKIEALGANSNKAHQSFGTKTAGGSAVYWGILFNSNGKIYKIVG | -2.96 |
| HMTVPTEVALELMHATALEDNEQRILYIASFKEKHREHLHATIEVDGQEVTLARYADLVATGAYL | -0.505 |
| HMNKMHKLPSVSEILNKVRLQKIHNESFIKFKIKEEIDRYRKLAKKDQLFLSRDEITYEIIEKLLNFSMPS | -2.57 |
| HMTPTFSNQDLIKAGLAGSPVAKRRRERLGELLGIGYGNAKQLLKRLDLFAIDRPTFERAVAQLDQEGK | -0.161 |
| HMRRKNQVQSSYQKRENGTYTVRFFLSDDMGSIMDLQLMATREDMARALRERFLKDPEKIYGQIMQMLLR | -0.255 |
| HMTEELQDMESRIIEAAKRVFVRKGYEATKMSDIALEVGLGRTALHYYFRTKEMLFDAIFGRLMGV | -0.385 |
| HMEVTLTLKSFGTAKVAVIKAIQSITGLGLMDAKKLVDAAPSVIKEKISPSEAEQYKKTLVDAGAEVEI | -0.806 |
| HMIPLPEDVASMRERLALTPEKADELFGLEDGSFARYEHGEEKVPFVVFQLLWLLGKYPHLIGELR | -0.818 |
| HMGNYRVIKWGMQGDDVKLMQQMLINRGYVLSATGKYASRTLKAIMAFQEANGLKADGIVGKRTWNKLL | -2.66 |
| HMGSNATIKYAIKGDESLVQVAQKFNVTVSELRSWNNISAFENAKTGQELVINVPASKYETYFALANT | 0.22 |
| HMDDENKIEVMINEEKVQLTGKDKYVFVDIFNYIDMDLTRIHGNLVLKLNGENASHNSLLKSGDKIEARWE | -0.181 |
| HMKYGPSTVAVLTVVRESEMGAFLDAETGRTNDDILLHKTQQTEPVHIGDQVKVFLYLDPKHRLTASMRVP | -1.16 |
| HMKLTNNDFIRLKTFMYNNYGINLENKKTLIETRLAIVVKRLGFNDFKSYIDNLMRDKTGEQASIIVGKLT | -0.58 |
| HMANSDEEVLNKISTKAPTFNELINKIKEFDDTKEINDIWLDVYRYYITDEEYKEIAKKVITGLTYTNQ | -0.177 |
| HMQDGVNLENIEQKLSTLGVGKAQYFLQNVGGNKFNAYMALNTDGVEGYQKGSDTLIEIKNVE | 0.11 |
| HMKPLRPVHLEIQTHRLSPVGILRSSFRQAGKVMHSNHGRITGLNLEQLKLIQAAFAGEALPK | -0.0219 |
| HMEVVVPEDLDAALQQASRAQSFFSSLSYTHKKEYVAWINEAKRAETRAMRIQKTITMLESGQRGH | -1.14 |
| HMAQLPADLSKVKSSQISDQQLTQIAQQAKNSGQSEQAVLQELKQRGLPDTEIQALGARISGLMQ | 0.137 |
